Source: patent US20070196883A1, “ENZYME” (UNIVERSITY OF DUNDEE, priority 1999, published 2007)

Assays:
[1] = target: T1, endogenous PDK1 associated with GST-PIF (Homo sapiens, UniProt O15530); test: Dissociation of endogenous PDK1 from purified GST-PIF by peptide; format: binding; details: peptide 100 μM, GST-PIF purified from 293 cells
T1 construct: endogenous in cells; host or cells: 293 cells transfected with pEBG2T GST-PIF; endogenous PDK1 co-purified on glutathione-Sepharose
Source text: In contrast, a mutant peptide in which the residue corresponding to Asp978 was changed to Ala (termed “D978A-Region B peptide”) interacted with PDK1>fold 10-less strongly (FIG. 13).

[2] = target: T2, His-PDK1 (Homo sapiens, UniProt O15530); test: Conversion of His-PDK1 into a Ser473 PKBα kinase by synthetic peptide (P-Ser473 immunoblot); format: biochemical; details: peptide at 20 µM, 3-phosphoinositide vesicles, MgATP
T2 construct: made in house; host or cells: Sf21 insect cells (baculovirus, pFASTBAC HTb)
T2 sequence (O15530 1-556): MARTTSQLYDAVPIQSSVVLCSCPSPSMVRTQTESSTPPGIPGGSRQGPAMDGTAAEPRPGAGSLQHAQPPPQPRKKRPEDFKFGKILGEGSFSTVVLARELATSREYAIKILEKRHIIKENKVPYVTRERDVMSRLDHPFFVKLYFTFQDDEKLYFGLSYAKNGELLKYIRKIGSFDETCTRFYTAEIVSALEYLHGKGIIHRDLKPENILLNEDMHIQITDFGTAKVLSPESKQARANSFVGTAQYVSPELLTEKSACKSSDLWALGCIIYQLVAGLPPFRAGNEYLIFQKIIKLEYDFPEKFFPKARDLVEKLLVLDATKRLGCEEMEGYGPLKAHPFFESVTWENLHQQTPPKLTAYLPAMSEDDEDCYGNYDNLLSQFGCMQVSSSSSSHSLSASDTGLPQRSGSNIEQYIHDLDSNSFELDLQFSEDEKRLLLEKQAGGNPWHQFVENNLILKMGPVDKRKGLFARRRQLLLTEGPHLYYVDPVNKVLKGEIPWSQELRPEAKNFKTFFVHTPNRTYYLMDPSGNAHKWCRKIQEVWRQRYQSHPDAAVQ
Protocol: FIG. 6. Conversion of PDK1 into an enzyme that can phosphorylate both Thr308 and Ser473 of PKB by addition of a synthetic peptide. […] After allowing to stand for 1 h at 4° C. GST-PKBα, MgATP and the indicated phospholipid vesicles containing 100 μM PtdCho, 100 μM PtdSer, and either 10 μM sn-1-stearoyl-2-arachidonoyl-D-PtdIns(3,4,5)P3 (1,2-SAD-PtdIns(3,4,5)P3), or sn-1,2 di-palmitoyl-D-PtdIns(3,4,5)P3 (C16-PtdIns(3,4,5)P3) or sn-1,2 di-palmitoyl-D-PtdIns(3,4)P2 (C16-PtdIns(3,4)P2) were added. After 1 h at 30° C., the reactions were terminated by making the solutions 1% in SDS, the samples were subjected to SDS/polyacylamide gel electrophoresis and immunoblotted using P-Ser473 antibody. Identical results were obtained in 2 separate experiments. […]
Phosphorylation of GST-PKBα by incubation with GST-PIF. In experiments in which the phosphorylation of PKBα was determined using the phospho-specific Ser473 PKBα antibodies, the incubations were identical to the Stage 1 described above except that the reactions were terminated by the addition of 1% (by mass) SDS and immunoblotting is carried out as described below. In experiments in which the sites of phosphorylation on PKBα are determined the incubations were identical to the Stage 1 described above except [γ^32P] […]

T1 sequence (Q16513 908-984 partner limits assumed, one chain of several): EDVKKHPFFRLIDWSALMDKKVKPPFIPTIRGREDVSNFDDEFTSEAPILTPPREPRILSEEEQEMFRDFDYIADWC

dissociation of the endogenous PDK1 from GST-PIF [1]: incapable of inducing the dissociation | inducing His-PDK1 to phosphorylate PKBα at Ser473 [2]: far less effective
Substance: D978A-Region B peptide: mutant peptide in which the residue corresponding to Asp978 was changed to Ala (REPRILSEEEQEMFRDFAYIADWC)
